B1: mRNA-decapping enzyme-like protein (Arabidopsis thaliana (Mouse-ear cress)), Q9SJF3 (parent)
chain: MSQNGKIIPNLDQNSTRLLNLTVLQRIDPYIEEILITAAHVTFYEFNIELSQWSRKDVEGSLFVVKRSTQPRFQFIVMNRRNTDNLVENLLGDFEYEVQGPYLLYRNASQEVNGIWFYNKRECEEVATLFNRILSAYSKVNQKPKASSSKSEFEELEAKPTMAVMDGPLEPSSTARDAPDDPAFVNFFSSTMNLGNTASGSASGPYQSSAIPHQPHQPHQPTIAPPVAAAAPPQIQSPPPLQSSSPLMTLFDNNPEVISSNSNIHTDLVTPSFFGPPRMMAQPHLIPGVSMPTAPPLNPNNASHQQRSYGTPVLQPFPPPTPPPSLAPAPTGPVISRDKVKEALLSLLQEDEFIDKITRTLQNALQQ
partner: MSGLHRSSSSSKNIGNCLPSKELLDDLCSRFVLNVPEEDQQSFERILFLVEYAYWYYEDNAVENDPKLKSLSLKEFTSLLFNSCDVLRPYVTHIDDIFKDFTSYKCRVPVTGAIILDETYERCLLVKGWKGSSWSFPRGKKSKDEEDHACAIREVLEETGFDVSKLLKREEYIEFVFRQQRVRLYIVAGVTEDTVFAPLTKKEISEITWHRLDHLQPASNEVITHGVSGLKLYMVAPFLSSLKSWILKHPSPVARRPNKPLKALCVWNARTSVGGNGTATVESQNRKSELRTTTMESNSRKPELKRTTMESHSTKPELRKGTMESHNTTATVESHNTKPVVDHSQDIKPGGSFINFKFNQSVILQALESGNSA

Variants of: B1
Conditions: with dcp2_arath DCP2, Q8GW31

Row | effect of a mutation on the interaction | Variant
1 | increasing interaction | S237D

Reference: IntAct's records for PubMed 22407295
